Test results as given in the supplement of paper PMC9112550, “Optimization of the antimicrobial peptide Bac7 by deep mutational scanning” (BMC Biology, 2022).

Tested on: Escherichia coli TOP10
Assay: shrunken log2 fold change of peptide-encoding DNA abundance (4.5 h post-induction vs induction); higher = less antimicrobial activity (less host growth inhibition)
Conditions: time post-induction: 4.5 h; library: site-saturation at positions 5, 18, 19, 20
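Also: peptides expressed intracellularly from a pBAD plasmid library in pooled LB shake-flask culture, induced with 0.3% L-arabinose, DNA abundance read by NGS, three biological replicates, DESeq2 with apeglm shrinkage.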

Sequence | shrunken log2 fold change
RRIRRRPPRLPRPRPRPRSAPRP | 0.532
RRIRMRPPRLPRPRPRPAATPRP | 0.573
RRIRTRPPRLPRPRPRPYRAPRP | -0.0709
RRIRLRPPRLPRPRPRPAWPPRP | 0.42
RRIRNRPPRLPRPRPRPADSPRP | -0.0169
RRIRCRPPRLPRPRPRPYDEPRP | -0.144
RRIRHRPPRLPRPRPRPYVMPRP | 0.0288
RRIRQRPPRLPRPRPRPWLPPRP | -0.181
RRIRVRPPRLPRPRPRPGVHPRP | 0.107
RRIRGRPPRLPRPRPRPRIAPRP | 0.519
RRIRGRPPRLPRPRPRPMCVPRP | 0.723
RRIRHRPPRLPRPRPRPEPDPRP | 0.257
RRIRIRPPRLPRPRPRPNTEPRP | -0.0443
RRIRVRPPRLPRPRPRPSSLPRP | -0.334
RRIRHRPPRLPRPRPRPHARPRP | 0.0947
RRIRTRPPRLPRPRPRPLDSPRP | -0.0239
RRIRPRPPRLPRPRPRPQWKPRP | 0.0366
RRIRGRPPRLPRPRPRPSSQPRP | 0.099
RRIRKRPPRLPRPRPRPWKPPRP | -0.243
RRIRIRPPRLPRPRPRPQKIPRP | -0.148
RRIRDRPPRLPRPRPRPRFCPRP | 0.341
RRIRFRPPRLPRPRPRPFQWPRP | -0.507
RRIRARPPRLPRPRPRPGTYPRP | -0.257
RRIRCRPPRLPRPRPRPDYRPRP | -0.0343
RRIRHRPPRLPRPRPRPSLKPRP | -0.488

Sequence | shrunken log2 fold change
RRIRPRPPRLPRPRPRPPYSPRP | -0.181
RRIRRRPPRLPRPRPRPKIMPRP | -0.0825
RRIRSRPPRLPRPRPRPCIMPRP | -0.105
RRIRVRPPRLPRPRPRPRQRPRP | 0.622
RRIRWRPPRLPRPRPRPHVVPRP | 0.0851
RRIRNRPPRLPRPRPRPNPSPRP | -0.00451
RRIRARPPRLPRPRPRPIAVPRP | 0.166
RRIRSRPPRLPRPRPRPKHPPRP | -0.194
RRIRCRPPRLPRPRPRPEVNPRP | -0.00709
RRIRCRPPRLPRPRPRPCQEPRP | -0.108
RRIRVRPPRLPRPRPRPFTVPRP | -0.105
RRIRNRPPRLPRPRPRPFRDPRP | 0.0452
RRIRNRPPRLPRPRPRPETIPRP | -0.0777
RRIRQRPPRLPRPRPRPEHPPRP | 0.0713
RRIRFRPPRLPRPRPRPMKVPRP | -0.344
RRIRARPPRLPRPRPRPAMNPRP | 0.121
RRIRLRPPRLPRPRPRPFWYPRP | -0.0126
RRIRFRPPRLPRPRPRPVYLPRP | -0.721
RRIRYRPPRLPRPRPRPFGPPRP | -0.0934
RRIRGRPPRLPRPRPRPLIFPRP | 0.404
RRIRSRPPRLPRPRPRPERSPRP | 0.206
RRIRNRPPRLPRPRPRPTYLPRP | -0.533
RRIRWRPPRLPRPRPRPYQNPRP | -0.847
RRIRARPPRLPRPRPRPYNVPRP | -0.284
RRIRSRPPRLPRPRPRPNGEPRP | 0.0431

Sequence | shrunken log2 fold change
RRIRIRPPRLPRPRPRPDEAPRP | 0.0301
RRIRTRPPRLPRPRPRPQGEPRP | -0.0823
RRIRDRPPRLPRPRPRPYRYPRP | -0.0188
RRIRHRPPRLPRPRPRPCLRPRP | 0.0119
RRIRNRPPRLPRPRPRPDYEPRP | -0.00884
RRIRVRPPRLPRPRPRPVCMPRP | 0.0454
RRIRPRPPRLPRPRPRPKSMPRP | -0.37
RRIRKRPPRLPRPRPRPQMLPRP | -0.167
RRIRYRPPRLPRPRPRPHTCPRP | -0.191
RRIRFRPPRLPRPRPRPGDAPRP | 0.158
RRIRMRPPRLPRPRPRPNDSPRP | -0.0147
RRIRKRPPRLPRPRPRPPYFPRP | -0.101
RRIRLRPPRLPRPRPRPTDVPRP | -0.524
RRIRIRPPRLPRPRPRPEIWPRP | -0.18
RRIRTRPPRLPRPRPRPEKFPRP | -0.376
RRIRDRPPRLPRPRPRPHDLPRP | -0.0733
RRIRYRPPRLPRPRPRPFRWPRP | -0.14
RRIRKRPPRLPRPRPRPDNNPRP | 0.0165
RRIRYRPPRLPRPRPRPIISPRP | -0.18
RRIRARPPRLPRPRPRPIEHPRP | 0.126
RRIRSRPPRLPRPRPRPDAWPRP | 0.545
RRIRYRPPRLPRPRPRPAAPPRP | 0.726
RRIRYRPPRLPRPRPRPNEHPRP | -0.268
RRIRKRPPRLPRPRPRPKYRPRP | -0.00889
RRIRVRPPRLPRPRPRPDYTPRP | -0.495

Sequence | shrunken log2 fold change
RRIRWRPPRLPRPRPRPQRLPRP | 0.159
RRIRPRPPRLPRPRPRPNKCPRP | -0.26
RRIRPRPPRLPRPRPRPEETPRP | -0.131
RRIRHRPPRLPRPRPRPKWRPRP | 0.328
RRIRCRPPRLPRPRPRPLAEPRP | 0.242
RRIRERPPRLPRPRPRPAVMPRP | 0.0088
RRIRTRPPRLPRPRPRPDIPPRP | -0.0961
RRIRYRPPRLPRPRPRPCFTPRP | -0.941
RRIRTRPPRLPRPRPRPYQQPRP | 0.0675
RRIRGRPPRLPRPRPRPKPQPRP | 0.543
RRIRKRPPRLPRPRPRPPWQPRP | 0.236
RRIRIRPPRLPRPRPRPHWYPRP | -1.16
RRIRDRPPRLPRPRPRPIFLPRP | -0.205
RRIRGRPPRLPRPRPRPCFHPRP | -0.011
RRIRTRPPRLPRPRPRPRGSPRP | 0.177
RRIRPRPPRLPRPRPRPTGCPRP | 0.0367
RRIRKRPPRLPRPRPRPRAAPRP | 1.13
RRIRERPPRLPRPRPRPACSPRP | 0.115
RRIRLRPPRLPRPRPRPNNCPRP | -0.207
RRIRMRPPRLPRPRPRPPVRPRP | 0.458
RRIRYRPPRLPRPRPRPQPCPRP | 0.025
RRIRYRPPRLPRPRPRPRFFPRP | -0.0565
RRIRERPPRLPRPRPRPDTNPRP | -0.183
RRIRERPPRLPRPRPRPCGHPRP | 0.0222
RRIRTRPPRLPRPRPRPMMNPRP | 0.0667

Sequence | shrunken log2 fold change
RRIRDRPPRLPRPRPRPWNKPRP | -0.117
RRIRPRPPRLPRPRPRPVRHPRP | 0.119
RRIRPRPPRLPRPRPRPSDEPRP | -0.244
RRIRSRPPRLPRPRPRPHNPPRP | -0.531
RRIRMRPPRLPRPRPRPVIKPRP | -0.0254
RRIRKRPPRLPRPRPRPLFFPRP | 0.147
RRIRYRPPRLPRPRPRPKGNPRP | -0.423
RRIRYRPPRLPRPRPRPITNPRP | -0.544
RRIRTRPPRLPRPRPRPYQDPRP | -0.0173
RRIRPRPPRLPRPRPRPFHQPRP | -0.216
RRIRERPPRLPRPRPRPSPAPRP | -0.0943
RRIRNRPPRLPRPRPRPCYIPRP | -0.33
RRIRHRPPRLPRPRPRPREVPRP | 0.151
RRIRSRPPRLPRPRPRPSVKPRP | -0.068
RRIRKRPPRLPRPRPRPEDYPRP | 1.15
RRIRERPPRLPRPRPRPLYWPRP | -0.383
RRIRFRPPRLPRPRPRPPHWPRP | 0.617
RRIRVRPPRLPRPRPRPLDFPRP | -0.147
RRIRMRPPRLPRPRPRPYWIPRP | -0.157
RRIRKRPPRLPRPRPRPAIFPRP | 0.233
RRIRIRPPRLPRPRPRPHETPRP | 0.0188
RRIRTRPPRLPRPRPRPTHAPRP | 4.04
RRIRPRPPRLPRPRPRPCCFPRP | -0.133
RRIRWRPPRLPRPRPRPINPPRP | -0.247
RRIRMRPPRLPRPRPRPATTPRP | 0.538
